Test results taken from US20230106715A1 (BIOSION, published 2023).

T1: recombinant human Siglec15-his protein (human, UniProt Q6ZMC9 20-263)
T1 construct: In house made; Biotin-labeled in the capture ELISA
T1 sequence: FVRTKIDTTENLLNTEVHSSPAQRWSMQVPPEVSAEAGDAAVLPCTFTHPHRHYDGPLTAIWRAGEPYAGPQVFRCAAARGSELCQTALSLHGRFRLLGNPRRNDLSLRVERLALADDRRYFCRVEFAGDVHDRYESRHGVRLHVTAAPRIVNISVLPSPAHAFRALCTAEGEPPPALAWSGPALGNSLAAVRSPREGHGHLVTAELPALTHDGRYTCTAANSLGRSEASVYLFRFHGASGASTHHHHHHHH

B1: A1E10G7H9 (antibody, V domains shown)
VH: QVQLQESGPGLVKPSGTLSLTCAVSGGSISSSNWWHWVRQPPGKGLEWIGEIYHSGNTNYKPSLKSRVTISVDKSKNQFSLKLSSVTAADTAVYYCARDEGNGWSNAFDIWGQGTMVTVSS
VL: ENVLTQSPGTLSLSPGERVTLSCRASQSVSSSYLAWYQQKPGQAPRFLIYGASGGATGIPDRFSGSGSGTDFTLTISRLEPEDFAVYYCQQYGSSPITFGQGTRLEIK
notes: Fully human antibody from transgenic mouse hybridoma
B2: anti-Siglec15 benchmark (ch5G12) (antibody, human IgG1, kappa, V domains shown)
VH: QVQLQQPGAELVKPGASVKMSCKASGYTFTSYWITWVIQRPGQGLEWIGDIYCGSDTMHYNEKFKNKATLTVDTSSSTAYMQLSSLTSEDSAVYYCARWWDYGSSYDYFDYWGQGTTLTVSS
VL: DIKMTQSPSSMYASLGERVTITCKASQDINSYLSWFQQKPGKSPKTLIYRANRLVDGVPSRFSGSGSGQDYSLTISSLEYEDMGIYYCLQYDEFPYTFGGGTKLEIKR
notes: ch5G12 (US 20190202912A1); also called BM; Siglec15-ch5G9

Tests used:
[1] = molecular target: T2, human Siglec15-Fc protein (human); experiment: competitive ELISA: biotin-labeled human Siglec15-Fc in solution, competitor coated benchmark; curve levels off at OD about 0.55, inhibition incomplete
T2 construct: In house made; also called recombinant human Siglec15 protein with human IgG1 Fc at the C-terminus
Procedure: The abilities of the anti-Siglec15 antibodies of the disclosure to block benchmark-human Siglec15 binding were measured in a competitive ELISA assay. Briefly, the benchmark was coated on 96-well micro plates at 2 μg/mL in PBS, 100 μl per well, and incubated for 2 hours at 37° C. Then plates were washed once with wash buffer, and blocked with 5% w/v non-fatty milk in PBST overnight at 4° C. The next day, the anti-Siglec15 antibodies of the disclosure or controls were diluted with biotin labeled human Siglec15-Fc protein (prepared in-house with SEQ ID NO: 19, 37 ng/ml in PBST with 2.5% w/v non-fatty milk), starting at 80 nM with a 4-fold serial dilution, and incubated at room temperature for 40 minutes. After plate washing 4 times, the antibody/Siglec15-Fc mixtures were added to benchmark coated plates, 100 μl per well. After incubation at 37° C. for 40 minutes, plates were washed 4 times again using wash buffer. Then the plates were added and incubated with 100 μl/well streptavidin conjugated HRP for 40 minutes at 37° C. […] Finally, TMB was added and the reaction was stopped using 1M H₂SO₄, and the absorbance of each well was read on a microplate reader using dual wavelength mode with 450 nm for TMB and 630 nm as the reference wavelength, then the OD (450-630) values were plotted against antibody concentration. Data was analyzed using Graphpad Prism software and IC₅₀ values were reported.

[2] = molecular target: T1, recombinant human Siglec15-his protein; experiment: capture ELISA, captured antibody, biotin-labeled human Siglec15-his in solution
Procedure: Briefly, 96-well plates were coated with 100 μl of 2 μg/ml AffiniPure Goat Anti-Human IgG F(ab′)₂ fragment specific (Jackson Immuno Research, Cat #109-005-097) in PBS for 2 hours at 37° C. Plates were washed once with wash buffer (PBS+0.05% v/v Tween-20, PBST) and then blocked with 200 μl blocking buffer (5% w/v non-fatty milk in PBST) overnight at 4° C. Plates were washed 4 times and respectively incubated with 100 μl serially diluted anti-Siglec15 antibodies of the disclosure, the benchmark and hIgG (human immunoglobulin (pH4) for intravenous injection, Hualan Biological Engineering Inc.), 5-fold dilution in 2.5% w/v non-fatty milk in PBST starting at 66.7 nM, for 40 minutes at 37° C., and then washed 4 times again. […] The reaction was stopped in 4 minutes at room temperature with 50 μl/well 1M H₂SO₄, and the absorbance of each well was read on a microplate reader using dual wavelength mode with 450 nm for TMB and 630 nm as the reference wavelength, then the OD (450-630) values were plotted against antibody concentration. Data was analyzed using Graphpad Prism software and EC₅₀ values were reported.

[3] = molecular target: T2, human Siglec15-Fc protein; experiment: competitive ELISA: coated human Siglec15-Fc, blocked ligand biotin-labeled human LRRC4C-Fc
Procedure: (§1) Serially diluted anti-Siglec15 antibodies or the controls (starting at 66.67 nM with a 5-fold serial dilution) in PBST with 2.5% w/v non-fatty milk were added to the Siglec15-Fc bound plates, 100 μl per well, and incubated with the human Siglec15-Fc protein at 37° C. for 40 minutes. Plates were washed 4 times again using wash buffer, then added and incubated for 40 minutes at 37° C. with 100 μl/well 290 ng/ml biotin-labeled human LRRC4C-Fc protein (prepared in-house with SEQ ID NO: 23). Plates were washed again using wash buffer. Thereafter, the plates were added with 100 μl/well streptavidin conjugated HRP (1:5000 dilution in PBST buffer, Jackson Immunoresearch, Cat #016-030-084) and incubated for 40 minutes at 37° C. Plates were washed again using wash buffer. Finally, TMB was added and the reaction was stopped using 1M H₂SO₄, and the absorbance of each well was read on a microplate reader using dual wavelength mode with 450 nm for TMB and 630 nm as the reference wavelength, then the OD (450-630) values were plotted against antibody concentration. Data was analyzed using Graphpad Prism software and IC₅₀ values were reported.
Target sequence in this assay (chain, as listed by the source limits assumed): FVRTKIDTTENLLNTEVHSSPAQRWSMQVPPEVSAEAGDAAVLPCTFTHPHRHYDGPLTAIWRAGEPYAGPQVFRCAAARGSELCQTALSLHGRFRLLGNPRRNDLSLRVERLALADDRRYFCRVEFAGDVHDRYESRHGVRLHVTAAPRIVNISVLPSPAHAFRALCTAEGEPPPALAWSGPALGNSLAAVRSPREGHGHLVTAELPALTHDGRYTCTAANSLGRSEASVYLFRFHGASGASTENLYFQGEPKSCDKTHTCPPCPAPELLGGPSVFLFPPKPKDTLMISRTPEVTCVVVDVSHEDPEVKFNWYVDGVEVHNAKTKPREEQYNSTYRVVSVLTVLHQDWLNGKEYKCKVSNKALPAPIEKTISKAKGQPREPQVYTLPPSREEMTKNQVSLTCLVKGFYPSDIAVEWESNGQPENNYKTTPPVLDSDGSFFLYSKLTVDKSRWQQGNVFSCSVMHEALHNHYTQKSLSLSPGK

[4] = molecular target: T2, human Siglec15-Fc protein; experiment: as above; remark: listed apart in the source
Procedure: as §1

| Binder | IC50 [1] | EC50 [2] | IC50 [3] | IC50 [4] |
| --- | --- | --- | --- | --- |
| B1 | ~0.0777 nM | – | – | – |
| B2 | – | 2.11 nM | 0.792 nM | 0.855 nM |
